Test: soluble on expression in E. coli; label from the status in PepcDB or PDB records

Row | Sequence | soluble on expression in E. coli
1 | MSLEFLNSLSYGISSHEVNNEFKQIFRELLTNHIIKEHKNKYYLNNGFAFGVLDISSKGTGFLQCFDESFKKDLLIENKNLKGANYKDIVAVKLLPLKKKRPSAKVILVLKRANETSLMITKRYGEAVLGMNIKTGLSTALKASQKSLKALPLGTILKIENENNNIIEVLGHIDDESVDEKISLALFNKNNEFSDACIKEALANGDSVDASMYENRMDLRALPFCTIDPIHAKDFDDAIYFDTQKREIYVAIADVSEYVYAYSAIDKEARNRGFSIYFPHIAIPMLPRPLSENICSLKPHLDRLAYCFKITLNHENKVIKEELFEGIINSKRRFNYDEVDEILIQKPDLKELSWLYELFEITKNLRKMRLKNAFEFRTEELRMNLDENLSLKSTVFEKDTPSHNLIEDCMLLANKAAAKLIDIGVFRNHLSADVRKIDKLLNELRELGIDVNFKPNLPELIRDIQALADELNLRAEVDKLIIKAQKKAEYSSVNAGHFGLGFDKYSHFTSPIRRYSDLILHRLLKAKQKNDEKLFNYLLLNIESTCENLSTLEREADKVAFDFMDRKFARWAAKNIGKKFKALVVQNDGVCIAKLDDEIKGADIILYDTRVNLLENVEVQIMEADIVMAKIYAKITQRLIKEENVEGHHHHHH | not soluble
2 | MGSDKIHHHHHHMKVILHIGAHRCATRSFQNYMTRKSDTLSQYGIAFMGPERTRNGLLHGIQPGAISVTGRDPMARARGRIALQLAGLQNAGTASVVISDASMLQPLEQCFALGALYPAAGEHLARLDHAFDGAVSDVMLNIRSPEMFWASALAVRLEHSLRMPNAATLSRIAEATRSWRDVIQDIYCAMPGARIRVFPYEVFATQPEAQLSAVTGVDCPHARGAFRLNASARLPELRAELPPRLAKLLPEDEGRWMPFSEAEAARLRESYYDDMMWLVGGADGLAELVEDPNKADATATPPAPDLVVQEDLTRGRMHDPDTGRLAGTG | not soluble
3 | MATSAEVSQRVLAYLVEQLGVDVSFLRHNDRDRRATRLVAEWPPRLNIPDPDPLRLIYFADADPVFALCEHAKEPLVFRPEPATEDYQRLIEEARGVPVTSAAAVPLVSGEITTGLLGFIKFGDRKWHEAELNALMTIATLFAQVQARVAAEARLRYLADHDDLEHHHHHH | not soluble
4 | GSMSLPPIRLPSPYGSDRLVQLAARLRPALCDTLITVGSQEFPAHSLVLAGVSQQLGRRGQWALGEGISPSTFAQLLNFVYGESVELQPGELRPLQEAARALGVQSLEEACWRARGDRA | soluble
5 | MSFEYNEKVLDHFLNPRNVGVLEDANGVGQCGNPACGDAMLFTIKVNPENDVIEDVRFKTFGCGSAIAVSSMLTEMVKGKPIQYALNLTYKDIFEELGGLPPQKIHCTNLGLETLHVAIKDYLMKQGRVEEASKIPDCYEEEEEQEESKEFEFLSGTLEHHHHHH | soluble
6 | MKRDAKDHARNRLMNFYIKKAPTYSAIVKIEHFENDAPSEAKDFEPLVVYSLNKKKRWEINQEFLDSSSEGDDSKSVIIDREIPDLYFAWWSLGNVHSHDCVNHSKPVNSSQIDNAKKEEKVVGYHIVRVPKNHKKVFDNKCIRYIGLRYPEFLGYSSKDWPALQYEMKELEEEHEELEKENASLEAESTETTKPTGFYNLDEHFVAKKQRKPKGWLTVE | not soluble
7 | MGHHHHHHSHALKRLEVEVELFNQPSEELENFDFIVSVGGDGTILRILQKLKRCPPIFGINTGRVGLLTHASPENFEVELKKAVEKFEVERFPRVSCSAMPDVLALNEIAVLSRKPAKMIDVALRVDGVEVDRIRCDGFIVATQIGSTGYAFSAGGPVVEPYLECFILIPIAPFRFGWKPYVVSMERKIEVIAEKAIVVADGQKSVDFDGEITIEKSEFPAVFFKNEKRFRNL | not soluble
8 | MSLSVQREDVDIKLIAIDMDGTLLNDEQLISDENRKAIREAEDKGVYVVISTGRTLMTCRELAESLKLSSFLITANGSEIWDSNFNLVERKLLHTDHIQMMWDLRNKHNTNFWASTVNKVWRGEFPENITDHEWLKFGFDIEDDDIRNEVLEELRKTKSSEITNSSPTNIEVNALGINKAAAPCQGYGKLGFTMENVMAMGDSLNDIAMIKEAGLGVAMGNAQDIVKETADYITDTNIEDGVAKAIRHWVLEGHHHHHH | soluble
9 | GHRVWIMYAQPYQVTLQEQQQELAQLEMARSALDSLSELICLQDCQGNLLTTNRAFDQFWEGRREEAITATASRVATRKSERKWTTDTQGRSCLLEVNLSSLVSPS | not soluble
10 | MSGLTKIKPPKKARIGLYSAGLNTYWGQFEGLYDCLMGYNRFIEKRLSEWGEVFNFGMVDTEEKGREAGEFFNKNNVDIVFSHAATYYASATVLPVHQINNAPVIILNLQPTAEMAYDTTGTDRWLAQCVGCSIPEISNAFNRAGITFRAVNGLLGLTETPDFAKADEVTCERPEAVRAWKQIEEWCRAAAVKRNLQWARFGFLGGYYSGMLDMYSDFTMLQAQTGIDIEVLEMSDLDAYLKTVTEEEVQEKLKEIQDFFEISGDSPSDPIAKKPTEEQLTWSAKVAIAQEKMVRERNLDSVSYYYHGRDDYLEEVQSGFIVGFSLLNAQGIACAGEGDIKTALAMKIADICGTGGSFCEIVAADFNRDTMILGHDGPFHFAISKGKPILRGMGVYHGKRGSGVSVEAKVRPGAVTTLGVTQTGDGRLKFNISEGEAIDAPILLNGNTSTHIRFSQKPAEYMDRWFQEAPTHHLALSVGHNAELFKKIAELMDIPYAIY | soluble
11 | LKSLRCFWNVRFITLSMLPRYTAQMLRRFIPPMLSLWLLFASLAQANGTVDKIQIKGLDKGDDVEMMKNITVSLSLYSVVGKEQGEFRLEYLLSQAEFQTRQALEPFGYYAPTIRIDAPRQNDHITVVIYVDKGEPVRVRQAHVAMTGAAAQDHYLQRDLEDFKPKLGEIFNHPTYEASKVRITRRLAERGYFDADFTHRRVEVTRAAHAADIDLIWESGRRYDMGPVRFHYDYFHEGLFNPLVYWDEGSYFHEGKLDRLRESLTKLDYFSSIDIQPKPEEADPEGNVPVDVKLERAKSKIYTAGISYGSESGAGLRAGVERRYMNARGHKMNARLDYAQNLKSLTTAYQIPAFKWLDGWYIFFARAYDEQTKYIDLRNVKLSAARSGQINRHLTATASLNALRGRWRYRADDGTNTVAYQQSTLVYPQLEASYVDVDDATFPRNGSAATVLLRGGASALGSKSNFTQLHGQLRWFHGLGASSRLILRGEAGTTWASDLVAMPPSLRFFAGGVNSIRGYAFREVGPRTAKPDAFALGAKHVFSAGAEFEYYYKGGPFGGAVFVDSGSAFNRYPDWHTGVGIGLRYRSPVGPVRVDIARGLNSPDSKIQLYIDIGANL | soluble
12 | NDEDCRNIYRYSPKDRKFEKLNLETDVTSAFAMSENNPSLAAYIGQGCYNAGVAYVYDLKKKTSRLIADPMKPTLERIELGEMKPWNFTASDGTEIKGMMCLPPSFDPNKKYPLIVYYYGGTTPTERGISNPYCAQLFASRDYVVYVIQPSGTIGFGQEFSARHVNAWGKRTADDIIEGTKQFCKEHPFVNDKKIGCLGASYGGFMTQYLQTQTDIFAAAVSHAGISNVTSYWGEGYWGYGYNAIAAADSYPWNNPELFTKQGSLFNADKINTPLLLLHGTVDTNVPIGESIQLFNALKILGKTVEFITVDGENHFIADYPKRMQWHNSIMAWFARWLQ | not soluble
13 | MNLVELGSKTAKDGFKNEKDIADRFENWKENSEAQDWLVTMGHNLDEIKSVKAVVLSGYKSDINVQVLVFYKDALDIHNIQVKLVSNKRGFNQIDKHWLAHYQEMWKFDDNLLRILRHFTGELPPYHSNTKDKRRMFMTEFSQEEQNIVLNWLEKNRVLVLTDILRGRGDFAAEWVLVAQKVSNNARWILRNINEVLQHYGSGDISLSPRGSINFGRVTIQRKGGDNGRETANMLQFKIDPTELFDI | soluble
14 | MAEEYSWDSYLNDRLLATNQVSGAGLASEEDGVVYACVAQGEESDPNFDKWSLFYKEDYDIEVEDENGTKTTKTINEGQTILVVFNEGYAPDGVWLGGTKYQFINIERDLEFEGYNFDVATCAKLKGGLHLVKVPGGNILVVLYDEEKEQDRGNSKIAALTFAKELAESSQLQHHHHHH | soluble
15 | VRSMGFLHRACRAPSSLPAPLMARPGRSVLARPAATPPGPLCATTRPRPPQGNQPPASRISNFPPKRHKTRVLAAAEDEVSAAVAALISAHGRRHHSLNNQAAAFHGQFAQNLNVGAGSCASAETTADAPTQALLGPADRQRRQRRAVRQWLVRWAAHPGRATRGFHNHRQ | not soluble
16 | MCFHNSMSAKAIKVAARYGRQSDVVEIYQSILDEQYHVNAFTFPRYPIITSSDEVQVFNWGLIPFWVRSEEDATEIRKMTLNARADTIFEKPSFREPIMKKRCIVPSTGYFEWRHEGANKIPYYIYVKDEPIFSMAGIYDRWLDKDTGEEHETFSIITTDTNSLTDYIDNTKHRMPAILTQEEEEKWLNPSLSKAEIASLLKPFDTEKMDAYVIRNDFLKKSPNDPTIVQRALEHHHHHH | soluble
17 | MYDKLLPMERIHIEVFEPFNGEAIEGKYSYVLLCRDYRSSFMWLLPLKSTKFKHLIPVVSSLFLTFARVPIFVTSSTLDKDDLYDICEEIASKYGLRIGLGLKSSARFHTGGILCIQYALNSYKKECLADWGKCLRYGPYRFNRRRNKRTKRK | soluble
18 | VRRVPLFENMDERLLDAICERLKPCLFTEKSYLVREGDPVNEMLFIIRGRLESVTTDGGRSGFYNRSLLKEGDFCGDELLTWALDPKSGSNLPSSTRTVKALTEVEAFALIADELKFVASQFRR | soluble
19 | MSLASAIRICTKFSRLSLNSRSTSKSLIHCMSNVTADVPPVSETKSKFLKAYKRPIPSIYNTVLQELIVQQHLMRYKKTYRYDPVFALGFVTVYDQLMEGYPSDQDRDAIFKAYIEALNEDPKQYRIDAQKMEEWARSQTSASLVDFSSKEGDIEAVLKDIAGRAGSKEGFSYSRFFAVGLFRLLELASATDPTVLDKLCASLNINKKSVDRDLDVYRNLLSKLVQANELLKEYVEREKKKQEERAQSQKANETISKCLGDTLYNPSFLVERKSEGHHHHHH | soluble
20 | MRIDFGAGDEISFIKKGHAGVIKLARSSALNALNGRMVSALKKALSVWETDDDVSCVLIEGEGRAFCAGGDVVEIYHMEEKISSYQYFNDEYRLNAYIKHFRKPYISFLNGIWMGGGVGISIYGSHRIVTENTLFAMPESAIGFFPDVGASFFLPSLPDHFGIYLALTGARIKWGDCLNLGLATHAVPEIELECIRKAIIEQGNPQLALEEHAITKDYETSHEIRSVINACFGTHTLEECMELLYKKSNEGLFFARECYDILQSRSPTSLKVIWKQMKQNSSQTLEECMKIENRIAHHMINSHDFREGVRAMLIDKDKTPKWQPDKLSNITDEMIDAYFQPVEKELLF | not soluble
21 | MSLHRLNLNGYEPDRHHEAAVAFCIHAGTDELTSPVHQHRKGQLILALHGAITCTVENALWMVPPQYAVWIPGGVKHSNQVTANAELCFLFIEPSAVTMPTTCCTLKISPLCRELILTLANRTTTQRAEPMTRRLIQVLFDELPQQPQQQLHLPVSSHPKIRTMVEMMAKEPVEWGSLGQWAGFFAMSERNLARLIVKETGLSFRQWRQQLQLIMALQGLVKGDTVQKVAHTLGYDSTTAFITMFKKGLGQTPGRYIAGLTTVSPQSAKPDPREGHHHHHH | soluble
22 | SQNRVPSSRTVSYFVAKPSSSEMEKLQLGPEDSILRMERIRFADDIPICFEVASIPYSLVSQYGKSEITNSFYKTLEAKSGHKIGHSNQTISAVQASEQIAEYLEIKRGDAILRVRQVSYFENGLPFEYVRTQYAGSRFEFYLEK | soluble
23 | MSWKFEEKSPIYAQIAQHVMMQIISQEIKSGDQLPTVREYAEIAGVNPNTMQRAFTELEREGMVYSQRTAGRFVTDDQKLIARKRRELAISELESFITNMTKMGFSHTEIIPVLTSFLKEDSQ | not soluble
24 | MGVDPSVKVEYKAPTVTYDQVGFMSKSTLMTHEQLISVRSAKVRQSVKITVKEQIPKSHDDKIKVSIVSPEIKSSSSSKNSSPPDARLNKDHNLEWCVILAPGQHRLLPVRYTIEHPASESLSYKFN | not soluble
